Test results taken from the supplement of paper PMC10567573.

B1: HESX1 (parent)
chain: ENKPSTCSFSIERILGLDQKKDCV

Variants of: B1
Assay: protein stability index of a GFP-peptide fusion (GPS, HEK-293T) (PSI 1-6); higher = more stable
Conditions: c terminus: a fixed tail appended
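Note: lentivirally expressed fusions sorted by FACS into six bins by GFP to DsRed ratio, PSI derived from sequencing read proportions per bin multiplied by bin number.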

| Variant | protein stability index |
| --- | --- |
| ENKPSTCSFSIERILGLDQKKDYV [C23Y] | 2.46 |
| ENKPSTCSFSIERILGLDQKKDTV [C23T] | 3.16 |
| ENKPSTCSFSIERILGLDQKKDDV [C23D] | 4.38 |
| ENKPSTCSFSIERILGLDQKKDQV [C23Q] | 3.42 |
| ENKPSTCSFSIERILGLDQKKDFV [C23F] | 2.62 |
| ENKPSTCSFSIERILGLDQKKDGV [C23G] | 3.56 |
| ENKPSTCSFSIERILGLDQKKDVV [C23V] | 3.41 |
| ENKPSTCSFSIERILGLDQKKDEV [C23E] | 3.6 |
| ENKPSTCSFSIERILGLDQKKDIV [C23I] | 2.91 |
| ENKPSTCSFSIERILGLDQKKDPV [C23P] | 3.29 |
| ENKPSTCSFSIERILGLDQKKDRV [C23R] | 3.92 |
| ENKPSTCSFSIERILGLDQKKDLV [C23L] | 2.7 |
| ENKPSTCSFSIERILGLDQKKDKV [C23K] | 3.41 |
| ENKPSTCSFSIERILGLDQKKDSV [C23S] | 3.45 |
| ENKPSTCSFSIERILGLDQKKDMV [C23M] | 2.83 |
| ENKPSTCSFSIERILGLDQKKDHV [C23H] | 3.33 |
| ENKPSTCSFSIERILGLDQKKDAV [C23A] | 3.64 |
| ENKPSTCSFSIERILGLDQKKDNV [C23N] | 3.23 |
| ENKPSTCSFSIERILGLDYKKDCV [Q19Y] | 1.97 |
| ENKPSTCSFSIERILGLDDKKDCV [Q19D] | 3.34 |
| ENKPSTCSFSIERILGLDTKKDCV [Q19T] | 2.88 |
| ENKPSTCSFSIERILGLDLKKDCV [Q19L] | 2.62 |
| ENKPSTCSFSIERILGLDNKKDCV [Q19N] | 2.64 |
| ENKPSTCSFSIERILGLDEKKDCV [Q19E] | 3.23 |

| Variant | protein stability index |
| --- | --- |
| ENKPSTCSFSIERILGLDVKKDCV [Q19V] | 2.71 |
| ENKPSTCSFSIERILGLDIKKDCV [Q19I] | 2.39 |
| ENKPSTCSFSIERILGLDGKKDCV [Q19G] | 3.06 |
| ENKPSTCSFSIERILGLDRKKDCV [Q19R] | 3.2 |
| ENKPSTCSFSIERILGLDPKKDCV [Q19P] | 3.14 |
| ENKPSTCSFSIERILGLDKKKDCV [Q19K] | 2.94 |
| ENKPSTCSFSIERILGLDAKKDCV [Q19A] | 2.33 |
| ENKPSTCSFSIERILGLDHKKDCV [Q19H] | 2.47 |
| ENKPSTCSFSIERILGLDCKKDCV [Q19C] | 2.67 |
| ENKPSTCSFSIERILGLDFKKDCV [Q19F] | 2.12 |
| ENKPSTCSFSIERILGLDMKKDCV [Q19M] | 2.6 |
| ENKPSTCSFSIERILGLDWKKDCV [Q19W] | 1.35 |
| ENKPSTCSFSIERILGLDSKKDCV [Q19S] | 2.79 |
| ENKPSTCSFSIERILGLLQKKDCV [D18L] | 2.12 |
| ENKPSTCSFSIERILGLQQKKDCV [D18Q] | 2.89 |
| ENKPSTCSFSIERILGLWQKKDCV [D18W] | 2.32 |
| ENKPSTCSFSIERILGLRQKKDCV [D18R] | 2.76 |
| ENKPSTCSFSIERILGLNQKKDCV [D18N] | 2.62 |
| ENKPSTCSFSIERILGLGQKKDCV [D18G] | 2.55 |
| ENKPSTCSFSIERILGLTQKKDCV [D18T] | 2.77 |
| ENKPSTCSFSIERILGLAQKKDCV [D18A] | 2.94 |
| ENKPSTCSFSIERILGLFQKKDCV [D18F] | 1.85 |
| ENKPSTCSFSIERILGLIQKKDCV [D18I] | 1.74 |
| ENKPSTCSFSIERILGLMQKKDCV [D18M] | 2.23 |

| Variant | protein stability index |
| --- | --- |
| ENKPSTCSFSIERILGLVQKKDCV [D18V] | 1.8 |
| ENKPSTCSFSIERILGLKQKKDCV [D18K] | 2.79 |
| ENKPSTCSFSIERILGLEQKKDCV [D18E] | 3.4 |
| ENKPSTCSFSIERILGLHQKKDCV [D18H] | 3 |
| ENKPSTCSFSIERILGLPQKKDCV [D18P] | 2.71 |
| ENKPSTCSFSIERILGLCQKKDCV [D18C] | 2.85 |
| ENKPSTCSFSIERILGLSQKKDCV [D18S] | 3.13 |
| ENKPSTCSFSIERILGLYQKKDCV [D18Y] | 2.14 |
| ENKPSTCSFSIERILGLDQKCDCV [K21C] | 2.11 |
| ENKPSTCSFSIERILGLDQKHDCV [K21H] | 2.35 |
| ENKPSTCSFSIERILGLDQKFDCV [K21F] | 2.35 |
| ENKPSTCSFSIERILGLDQKYDCV [K21Y] | 1.67 |
| ENKPSTCSFSIERILGLDQKRDCV [K21R] | 2.62 |
| ENKPSTCSFSIERILGLDQKIDCV [K21I] | 1.9 |
| ENKPSTCSFSIERILGLDQKADCV [K21A] | 2.41 |
| ENKPSTCSFSIERILGLDQKWDCV [K21W] | 1.86 |
| ENKPSTCSFSIERILGLDQKPDCV [K21P] | 2.67 |
| ENKPSTCSFSIERILGLDQKMDCV [K21M] | 2.05 |
| ENKPSTCSFSIERILGLDQKGDCV [K21G] | 2.86 |
| ENKPSTCSFSIERILGLDQKLDCV [K21L] | 2.27 |
| ENKPSTCSFSIERILGLDQKQDCV [K21Q] | 2.93 |
| ENKPSTCSFSIERILGLDQKSDCV [K21S] | 2.95 |
| ENKPSTCSFSIERILGLDQKDDCV [K21D] | 3.16 |
| ENKPSTCSFSIERILGLDQKEDCV [K21E] | 3.4 |

| Variant | protein stability index |
| --- | --- |
| ENKPSTCSFSIERILGLDQKTDCV [K21T] | 3.19 |
| ENKPSTCSFSIERILGLDQKVDCV [K21V] | 2.54 |
| ENKPSTCSFSIERILGLDQKNDCV [K21N] | 2.62 |
| ENKPSTCSFSIERILGLDQKKDCY [V24Y] | 2.74 |
| ENKPSTCSFSIERILGLDQKKDCQ [V24Q] | 3.81 |
| ENKPSTCSFSIERILGLDQKKDCT [V24T] | 2.83 |
| ENKPSTCSFSIERILGLDQKKDCM [V24M] | 2.89 |
| ENKPSTCSFSIERILGLDQKKDCF [V24F] | 2.91 |
| ENKPSTCSFSIERILGLDQKKDCE [V24E] | 4.25 |
| ENKPSTCSFSIERILGLDQKKDCI [V24I] | 3.64 |
| ENKPSTCSFSIERILGLDQKKDCC [V24C] | 3.49 |
| ENKPSTCSFSIERILGLDQKKDCW [V24W] | 2.18 |
| ENKPSTCSFSIERILGLDQKKDCD [V24D] | 4.18 |
| ENKPSTCSFSIERILGLDQKKDCN [V24N] | 3.79 |
| ENKPSTCSFSIERILGLDQKKDCH [V24H] | 4.64 |
| ENKPSTCSFSIERILGLDQKKDCS [V24S] | 2.88 |
| ENKPSTCSFSIERILGLDQKKDCK [V24K] | 4.15 |
| ENKPSTCSFSIERILGLDQKKDCP [V24P] | 3.14 |
| ENKPSTCSFSIERILGLDQKKDCA [V24A] | 3.81 |
| ENKPSTCSFSIERILGLDQKKDCG [V24G] | 3.9 |
| ENKPSTCSFSIERILGLDQKKDCL [V24L] | 3.03 |
| ENKPSTCSFSIERILGLDQKKDCR [V24R] | 3.38 |
